The values that follow come from PMC11633110.

Holding throughout (test): EMSA
Details in all cases: 10 mM Tris-HCl pH 8, 50 mM KCl, 0.5 mM EDTA, 10% glycerol, 0.5 mM DTT, 10 nM DNA, 25°C 25 min; 8% PAGE in 0.5x TBE
A general note: In EMSA bound probe runs differently from free probe, usually more slowly.

For series [1], the target named is T1, SydR' C114S (CS) C114S (Sinorhizobium meliloti Rm2011) (UniProt Q92XY2).
T1 sequence: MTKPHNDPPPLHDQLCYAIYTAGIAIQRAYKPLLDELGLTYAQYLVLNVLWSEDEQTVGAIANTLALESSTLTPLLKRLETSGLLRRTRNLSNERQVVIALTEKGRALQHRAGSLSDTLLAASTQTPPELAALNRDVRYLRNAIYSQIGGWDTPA

Series [2] addresses T2, SydR' C16S (SC) C16S (Sinorhizobium meliloti Rm2011) (UniProt Q92XY2).
T2 sequence: T1 sequence with C16S, S114C

The target in series [3] is T3, SydR' C16S&C114S (SS) C16S;C114S (Sinorhizobium meliloti Rm2011) (UniProt Q92XY2).
T3 sequence: T1 sequence with C16S

Changes are numbered by the printed parent chain.

As for “TCTGGGCTCCTTTGCGCACCAATATAATCAAGATTACCGCGAAAACCAATATCGCGATAAGAGATATGTTGACGAGCAGTTCAATATCTGACAACTTAAATATATCGCGATAACAGTTATCGCTATCAACGAAAGGAAAAAGCC (double strand) [sydR-SMa2023 intergenic region, 144 bp]”, the values for the binding entry in series [1], in series [2] and in series [3] were “binds”, “binds more weakly” and “binds more weakly”, respectively.
